Measured values reported in patent US20070048801A1.

Molecular target: CXCR3 from Mus musculus (NCBI accession no. NP_034040) (Mus musculus) (UniProt O88410)
Experiment: cell-based or functional assay

Chain of UniProt O88410 (O88410 whole entry): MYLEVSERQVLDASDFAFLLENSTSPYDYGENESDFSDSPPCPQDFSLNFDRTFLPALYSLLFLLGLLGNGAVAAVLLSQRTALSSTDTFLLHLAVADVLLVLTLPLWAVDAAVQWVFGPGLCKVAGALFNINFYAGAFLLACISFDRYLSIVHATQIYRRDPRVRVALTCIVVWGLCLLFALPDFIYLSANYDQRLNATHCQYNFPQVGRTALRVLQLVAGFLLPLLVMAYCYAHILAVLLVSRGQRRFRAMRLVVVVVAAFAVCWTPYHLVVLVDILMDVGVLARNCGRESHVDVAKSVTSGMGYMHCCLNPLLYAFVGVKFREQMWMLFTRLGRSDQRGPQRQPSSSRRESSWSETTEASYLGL

TEER, WT mouse intestinal segments (n=10), baseline: 24.1
TEER, WT mouse intestinal segments (n=10), post-gliadin exposure: 14.7
zonulin release, WT mouse intestinal segments (n=10), baseline (ng/mg protein): 0.33
zonulin release, WT mouse intestinal segments (n=10), post-gliadin exposure (ng/mg protein): 0.61
Substance: PT-gliadin (gliadin digested with pepsin and trypsin) (peptide)
